According to patent publication US20250297032A1:

What was measured:
[1] = biological target: human FAPα-His tag (Sino biological) (human) (UniProt Q12884); assay: ELISA, coated human FAPα-His
[2] = biological target: mouse FAPα-His protein (mouse) (UniProt P97321); assay: ELISA, coated mouse FAPα-His
[3] = biological target: human FAPα on CHO-K1-hFAPα cells (human) (UniProt Q12884); assay: flow cytometry on CHO-K1-hFAPα cells
[4] = biological target: human FAPα on CHO-K1-hFAPα cells (human) (UniProt Q12884); assay: flow cytometry on CHO-K1-hFAPα cells (MFI of PE); design: unit not given beside the values
[5] = biological target: human FAPα-His tag (Sino biological) (human) (UniProt Q12884); assay: competitive ELISA on coated human FAPα; competitor (detected): FAP-G14-Bio
[6] = biological target: human FAPα-His tag (Sino biological) (human) (UniProt Q12884); assay: competitive ELISA on coated human FAPα; competitor (detected): FAP-G52-Bio
[7] = biological target: human FAPα-His tag (Sino biological) (human) (UniProt Q12884); assay: competitive ELISA on coated human FAPα; competitor (detected): FAP-I30-Bio
[8] = biological target: human FAPα-His tag (Sino biological) (human) (UniProt Q12884); assay: competitive ELISA on coated human FAPα; competitor (detected): FAP-I37-Bio
[9] = biological target: human FAPα-His tag (Sino biological) (human) (UniProt Q12884); assay: competitive ELISA on coated human FAPα; competitor (detected): FAP-I38-Bio
[10] = biological target: human FAPα-His tag (Sino biological) (human) (UniProt Q12884); assay: competitive ELISA on coated human FAPα; competitor (detected): FAP-J40-Bio
[11] = biological target: human FAPα-His tag (Sino biological) (human) (UniProt Q12884); assay: SPR (Biacore T200), mAb captured on Protein A chip, human FAPα-His as analyte
[12] = biological target: human FAPα-His tag (Sino biological) (human) (UniProt Q12884); assay: competitive ELISA on coated human FAPα; competitor (detected): FAPα (BMK)-Bio
[13] = biological target: human FAPα-His tag (Sino biological) (human) (UniProt Q12884); assay: competitive ELISA on coated human FAPα; biotinylated mAb alone, no competing Ab (row '0')

human FAPα-His tag (Sino biological) (human), sequence (Q12884 26-760 limits assumed): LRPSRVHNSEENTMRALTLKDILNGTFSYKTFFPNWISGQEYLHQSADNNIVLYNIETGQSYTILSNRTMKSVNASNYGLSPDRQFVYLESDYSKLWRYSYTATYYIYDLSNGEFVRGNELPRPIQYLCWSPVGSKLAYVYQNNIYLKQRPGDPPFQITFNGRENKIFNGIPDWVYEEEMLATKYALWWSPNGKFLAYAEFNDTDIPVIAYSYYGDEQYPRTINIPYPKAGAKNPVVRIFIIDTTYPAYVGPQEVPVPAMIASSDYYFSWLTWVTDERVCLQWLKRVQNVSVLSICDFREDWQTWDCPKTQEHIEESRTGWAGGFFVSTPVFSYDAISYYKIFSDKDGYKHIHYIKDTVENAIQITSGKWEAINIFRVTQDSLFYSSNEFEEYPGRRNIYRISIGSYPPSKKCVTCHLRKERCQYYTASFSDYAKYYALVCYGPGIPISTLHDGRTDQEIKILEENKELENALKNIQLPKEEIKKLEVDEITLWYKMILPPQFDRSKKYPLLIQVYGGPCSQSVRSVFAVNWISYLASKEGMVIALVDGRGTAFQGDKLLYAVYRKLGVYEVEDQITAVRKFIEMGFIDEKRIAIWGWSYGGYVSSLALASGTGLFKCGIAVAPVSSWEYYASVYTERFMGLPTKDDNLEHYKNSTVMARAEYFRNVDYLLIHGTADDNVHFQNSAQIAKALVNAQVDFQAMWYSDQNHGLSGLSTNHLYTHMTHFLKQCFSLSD
human FAPα on CHO-K1-hFAPα cells (human), sequence (Q12884 whole entry): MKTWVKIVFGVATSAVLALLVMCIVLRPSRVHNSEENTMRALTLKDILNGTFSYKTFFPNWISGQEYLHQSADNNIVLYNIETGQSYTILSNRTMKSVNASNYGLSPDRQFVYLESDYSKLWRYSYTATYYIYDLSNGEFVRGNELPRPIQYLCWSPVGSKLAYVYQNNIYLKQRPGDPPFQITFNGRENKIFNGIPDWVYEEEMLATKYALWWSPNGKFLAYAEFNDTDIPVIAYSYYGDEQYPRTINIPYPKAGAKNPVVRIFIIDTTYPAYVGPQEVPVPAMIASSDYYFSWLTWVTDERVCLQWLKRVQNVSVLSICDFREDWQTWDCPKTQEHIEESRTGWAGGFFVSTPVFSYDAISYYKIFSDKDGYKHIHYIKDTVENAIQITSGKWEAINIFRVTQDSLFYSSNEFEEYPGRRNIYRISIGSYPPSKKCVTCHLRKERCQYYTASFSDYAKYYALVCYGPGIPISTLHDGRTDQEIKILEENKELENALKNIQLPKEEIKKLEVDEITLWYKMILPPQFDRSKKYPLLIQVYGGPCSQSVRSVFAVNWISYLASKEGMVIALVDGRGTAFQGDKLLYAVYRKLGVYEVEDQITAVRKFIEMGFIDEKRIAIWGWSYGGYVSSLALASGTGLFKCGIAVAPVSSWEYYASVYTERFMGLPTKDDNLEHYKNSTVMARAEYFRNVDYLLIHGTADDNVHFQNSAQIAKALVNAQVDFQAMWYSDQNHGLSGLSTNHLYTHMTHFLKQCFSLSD
mouse FAPα-His protein (mouse), sequence (P97321 26-761 limits assumed): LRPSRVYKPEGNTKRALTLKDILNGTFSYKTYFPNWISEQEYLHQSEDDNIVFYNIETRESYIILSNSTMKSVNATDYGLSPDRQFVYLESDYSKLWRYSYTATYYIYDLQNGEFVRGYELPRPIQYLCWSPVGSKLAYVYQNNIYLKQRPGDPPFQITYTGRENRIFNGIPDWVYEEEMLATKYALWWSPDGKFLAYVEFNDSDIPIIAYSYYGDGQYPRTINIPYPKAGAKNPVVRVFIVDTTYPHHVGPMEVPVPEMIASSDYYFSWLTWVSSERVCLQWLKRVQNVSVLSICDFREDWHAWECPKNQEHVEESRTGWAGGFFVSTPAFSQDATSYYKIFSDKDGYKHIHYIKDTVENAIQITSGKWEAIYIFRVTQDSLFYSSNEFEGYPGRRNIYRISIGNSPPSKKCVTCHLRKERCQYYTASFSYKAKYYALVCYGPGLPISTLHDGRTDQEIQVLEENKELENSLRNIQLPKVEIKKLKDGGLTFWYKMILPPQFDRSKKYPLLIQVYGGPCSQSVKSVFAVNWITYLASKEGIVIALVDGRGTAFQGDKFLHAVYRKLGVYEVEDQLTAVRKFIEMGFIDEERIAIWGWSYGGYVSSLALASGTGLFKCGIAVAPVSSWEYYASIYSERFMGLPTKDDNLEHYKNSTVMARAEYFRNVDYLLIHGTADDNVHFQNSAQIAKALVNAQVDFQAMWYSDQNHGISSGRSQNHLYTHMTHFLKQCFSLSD

## FAP-4B9 clone from Roche (FAPα-BMK) (antibody)
[1]
  EC50: 5.55 ng/mL
[2]
  EC50: 10.3 ng/mL
[3]
  EC50: 0.043 ng/mL
[4]
  Cmax: 424
[5]
  OD 450 nm: 0.135 OD 450 nm
[6]
  OD 450 nm: 0.169 OD 450 nm
[7]
  OD 450 nm: 0.155 OD 450 nm
[8]
  OD 450 nm: 0.23 OD 450 nm
[9]
  OD 450 nm: 0.265 OD 450 nm
[10]
  OD 450 nm: 0.179 OD 450 nm
[11]
  Kd: 6.94 nM
  koff: 0.000208 s⁻¹
  kon: 30000 M⁻¹ s⁻¹
[12]
  OD 450 nm: 0.171 OD 450 nm
[13]
  OD 450 nm: 1.26 OD 450 nm
